Experiments:
[1] = tested on: T1, Nc1nc2c(ncn2[C@@H]2O[C@H](COP(=O)(O)OP(=O)(O)OP(=O)(O)O)[C@@H](O)[C@H]2O)c(=O)[nH]1; experiment: multiple turnover radioactive charcoal GTPase assay, Michaelis-Menten fit; type: biochemical, C. tepidum; details: 100 nM protein, 50 mM NaCl, 20 mM Tris/HCl, 10 mM MgCl2, 1 mM DTT, 0.5 mg/ml BSA, pH 7.5, 25°C, labelled compound (gamma-32P)
T1 construct: Roc-COR-kinase fragment, AA 1334-2147, N-terminal His-tag, expressed in Sf9 cells, Ni-NTA purified

[2] = tested on: T1, Nc1nc2c(ncn2[C@@H]2O[C@H](COP(=O)(O)OP(=O)(O)OP(=O)(O)O)[C@@H](O)[C@H]2O)c(=O)[nH]1; experiment: as above; type: biochemical, Chlorobaculum tepidum; details: 100 nM protein, 50 mM NaCl, 20 mM Tris/HCl, 10 mM MgCl2, 1 mM DTT, 0.5 mg/ml BSA, pH 7.5, 25°C, labelled compound (gamma-32P)

Chain of LRRK2 Roc-COR-kinase fragment (Homo sapiens) (chain, as listed by the source): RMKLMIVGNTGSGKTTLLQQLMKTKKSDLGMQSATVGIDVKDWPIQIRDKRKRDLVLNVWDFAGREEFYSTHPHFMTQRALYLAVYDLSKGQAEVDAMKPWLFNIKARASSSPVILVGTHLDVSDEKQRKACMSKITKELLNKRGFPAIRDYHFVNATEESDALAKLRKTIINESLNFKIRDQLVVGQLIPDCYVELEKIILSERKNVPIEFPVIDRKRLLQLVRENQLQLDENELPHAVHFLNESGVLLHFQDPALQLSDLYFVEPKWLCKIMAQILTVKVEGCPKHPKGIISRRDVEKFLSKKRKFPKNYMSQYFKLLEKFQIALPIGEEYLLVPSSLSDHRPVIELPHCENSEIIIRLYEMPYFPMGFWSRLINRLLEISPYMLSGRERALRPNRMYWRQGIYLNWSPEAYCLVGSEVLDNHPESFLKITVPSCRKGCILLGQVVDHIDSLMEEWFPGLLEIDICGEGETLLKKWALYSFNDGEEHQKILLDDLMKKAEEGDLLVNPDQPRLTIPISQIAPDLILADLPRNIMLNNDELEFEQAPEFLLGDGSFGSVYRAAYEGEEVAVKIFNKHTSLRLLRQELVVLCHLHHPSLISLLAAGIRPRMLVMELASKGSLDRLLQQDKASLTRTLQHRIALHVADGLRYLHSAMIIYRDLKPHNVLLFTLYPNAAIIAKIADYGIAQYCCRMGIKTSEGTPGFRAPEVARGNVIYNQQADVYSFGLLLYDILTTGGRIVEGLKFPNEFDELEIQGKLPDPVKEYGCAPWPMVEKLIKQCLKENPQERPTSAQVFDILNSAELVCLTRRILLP
Chain of LRRK2 Roc-COR-kinase fragment (Homo sapiens; R1441C) (chain, as listed by the source R1441C): as the sequence (chain, as listed by the source) above, with R108C counted along it

“LRRK2 Roc-COR-kinase fragment (Homo sapiens)” showed a Km [1] of 343 µM and a kcat [1] of 0.013 s⁻¹.

For “LRRK2 Roc-COR-kinase fragment (Homo sapiens; R1441C)”, the Km [2] was 541 µM and the kcat [2] was 0.00617 s⁻¹.

Source: publication PMC4721548, “Conformational heterogeneity of the Roc domains in C. tepidum Roc–COR and implications for human LRRK2 Parkinson mutations” (Bioscience Reports, 2015)
